Assay results published in patent US20240043547A1.

Legend:
[1] = molecular target: human IL-31 (human) (UniProt Q6EBC2); assay: cell-based or functional assay
[2] = molecular target: cynomolgus IL-31-His (cynomolgus monkey (Macaca fascicularis)); assay: SPR (Biacore T200), cynomolgus IL-31-His captured via anti-His antibody, scFv as analyte

Sequence of human IL-31 (human) (Q6EBC2 24-164 limits assumed): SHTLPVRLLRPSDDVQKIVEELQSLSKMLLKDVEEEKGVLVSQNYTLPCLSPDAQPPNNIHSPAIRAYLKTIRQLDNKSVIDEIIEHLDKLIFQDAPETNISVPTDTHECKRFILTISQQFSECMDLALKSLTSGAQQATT

IC50 [ng/ml], neutralization of hIL-31-induced signaling in IL-31RA/OSMR dimerization assay [1] [ng/mL] | rel. IC50 (IC50, BMS-981164/IC50, test sample), IL-31RA/OSMR dimerization assay [1] | Kd [2] [nM] | koff [2] [s⁻¹] | kon [2] [M⁻¹ s⁻¹] | Binder
8.07 | 0.78 | 1.14 | 0.000569 | 501000 | PRO1901 (scFv) scFv: AFQLTQSPSSLSASVGDRVTITCQASQSIDSWLAWYQQKPGKPPKLLIYQASKLASGVPSRFSGSGSGTDYTLTISSLQPEDFATYYCQTYYGGGHIGWGFGTGTKVTVLGGGGGSGGGGSGGGGSGGGGSQSQLVESGGGSVQPGGSLRLSCAASGFSFSANYWICWVRQAPGKGLEWIVCIYIGSRADTYYAPWAKGRFTISKDNSKNTVYLQMNSLRAEDTATYFCARFSSGIYDLDRFFLWGQGTQVTVSS
371 | 0.03 | 3.38 | 0.00247 | 731000 | PRO1902 (scFv) scFv: AFQLTQSPSSLSASVGDRVTITCQASQSIDSWLAWYQQKPGKPPKLLIYQASKLASGVPSRFSGSGSGTDYTLTISSLQPEDFATYYCQTYYGGGHIGWGFGTGTKVTVLGGGGGSGGGGSGGGGSGGGGSQSQLVESGGGLVQPGGSLRLSCAASGFSFSANYWICWVRQAPGKGLEWIVCISIGSRADTYYAPWAKGRFTISKDNSKNTVYLQMNSLRAEDTAVYFCARFSSGIYDLDRFFLWGQGTLVTVSS
7.98 | 1.49 | 1.39 | 0.000605 | 434000 | PRO1903 (scFv) scFv: AFQLTQSPSSLSASVGDRVTITCQASQSIESWLAWYQQKPGKPPKLLIYQASKLASGVPSRFSGSGSGTDYTLTISSLQPEDFATYYCQTYYGGGHIGWGFGTGTKVTVLGGGGGSGGGGSGGGGSGGGGSQSQLVESGGGLVQPGGSLRLSCAASGFSFSANYWICWVRQAPGKGLEWIVCIYIGSRADTYYAPWAKGRFTISKDNSKNTVYLQMNSLRAEDTAVYFCARFSSGIYDLDRFFLWGQGTLVTVSS
